From patent US20250066745A1, “MUTANTS AND USE THEREOF” (BGI SHENZHEN, priority 2021, published 2025)

Assays:
[1] = Luminescence activity assay of purified Gaussia luciferase mutants on coelenterazine; assay type: biochemical; design: key to Activity of mutant relative to wild-type Gaussia luciferase without the signal peptide: ratio of mutant luminescence intensity to wild-type Gaussia luciferase; conditions: Substrate CTZ (Table 16)
Protocol: (§1) In this Example, the protein concentration was determined with a BCA quantitative kit (Thermo Scientific™ Pierce™ BCA Protein Assay Kit) accurately. The purified luciferase obtained in Example 5 was diluted with diluent (50 mM Tris-HCl, pH 8.0, 100 mM NaCl, 0.1% (v/v) Tween-20) to 1 μg/mL. The diluted luciferase, taken for 10 μL, was moved into a black 96-well plate, then added with 90 μL of the substrates coelenterazine, fluoro-coelenterazine or coelenterazine derivative ZS2 (purchased from Biolab) which was diluted into 100 μM with the same diluent, and the luminescence intensity of the plate was read with a self-luminescence module of a microplate reader. The mutation site of the mutant, the measured luminescence intensity, the ratio of luminescence intensities of the advantageous mutants to the wild-type Gaussia luciferase without the signal peptide having the sequence shown in SEQ ID NO: 3 are shown in Table 15. The results of catalytic activity assay of the advantageous mutants relative to the wild-type Gaussia luciferase without the signal peptide having the sequence shown in SEQ ID NO: 3 on substrate coelenterazine are shown in FIG. 6. […] The results of catalytic activity assay of the advantageous mutants relative to the wild-type Gaussia luciferase without the signal peptide having the sequence shown in SEQ ID NO: 3 on substrate fluoro-coelenterazine are shown in FIG. 7.
(§2) The new mutant library constructed in Example 7 was screened and tested for substrate specificity. Expression and purification schemes were the same as that in Example 5, and the activity assay scheme was the same as that in Example 6. The respective catalytic activities of combinatorial mutants on coelenterazine, fluoro-coelenterazine or coelenterazine derivative ZS2, and coelenterazine derivative ZS26 (purchased from BIOLAB) were assayed, and comparisons among the substrate specificities of the combinatorial mutants were based on the ratios of catalytic activities on two corresponding substrates.

[2] = Luminescence activity assay of purified Gaussia luciferase mutants on coelenterazine derivative ZS2; assay type: biochemical; design: key to Activity of mutant relative to wild-type Gaussia luciferase without the signal peptide: ratio of mutant luminescence intensity to wild-type Gaussia luciferase; conditions: Substrate ZS2 (Table 16)
Protocol: as §1, §2

B1: F26R N27D V29C A30G V31L A32D S33V A36V T37S: Gaussia luciferase mutant (protein)
chain: MGVKVLFALICIAVAEAKPTENNEDRDICGLDVNFVSTDLDADRGKLPGKKLPLEVLKEMEANARKAGCTRGCLICLSHIKCTPKMKKFIPGRCHTYEGDKESAQGGIGEAIVDIPEIPGFKDLEPMEQFIAQVDLCVDCTTGCLKGLANVQCSDLLKKWLPQRCATFASKIQGQVDKIKGAGGD
modifications: SIGNAL (1)..(17)
notes: Gaussia luciferase mutant
[1]
  Activity of mutant relative to wild-type Gaussia luciferase without the signal peptide: 1.308
[2]
  Activity of mutant relative to wild-type Gaussia luciferase without the signal peptide: 0.128

B2: F26T N27N V29E V31I A32G S33V A36R T37G L40G: Gaussia luciferase mutant (protein)
chain: MGVKVLFALICIAVAEAKPTENNEDTNIEAIGVNFRGTDGDADRGKLPGKKLPLEVLKEMEANARKAGCTRGCLICLSHIKCTPKMKKFIPGRCHTYEGDKESAQGGIGEAIVDIPEIPGFKDLEPMEQFIAQVDLCVDCTTGCLKGLANVQCSDLLKKWLPQRCATFASKIQGQVDKIKGAGGD
modifications: SIGNAL (1)..(17)
notes: Gaussia luciferase mutant
[1]
  Activity of mutant relative to wild-type Gaussia luciferase without the signal peptide: 0.940
[2]
  Activity of mutant relative to wild-type Gaussia luciferase without the signal peptide: 1.995

B3: F26R V29F A30D V31L S33G T37D L40A: Gaussia luciferase mutant (protein)
chain: MGVKVLFALICIAVAEAKPTENNEDRNIFDLAGNFADTDADADRGKLPGKKLPLEVLKEMEANARKAGCTRGCLICLSHIKCTPKMKKFIPGRCHTYEGDKESAQGGIGEAIVDIPEIPGFKDLEPMEQFIAQVDLCVDCTTGCLKGLANVQCSDLLKKWLPQRCATFASKIQGQVDKIKGAGGD
modifications: SIGNAL (1)..(17)
notes: Gaussia luciferase mutant
[1]
  Activity of mutant relative to wild-type Gaussia luciferase without the signal peptide: 1.017
[2]
  Activity of mutant relative to wild-type Gaussia luciferase without the signal peptide: 1.781

B4: F26S V29L A30G S33R T37K L40A: Gaussia luciferase mutant (protein)
chain: MGVKVLFALICIAVAEAKPTENNEDSNILGVARNFAKTDADADRGKLPGKKLPLEVLKEMEANARKAGCTRGCLICLSHIKCTPKMKKFIPGRCHTYEGDKESAQGGIGEAIVDIPEIPGFKDLEPMEQFIAQVDLCVDCTTGCLKGLANVQCSDLLKKWLPQRCATFASKIQGQVDKIKGAGGD
modifications: SIGNAL (1)..(17)
notes: Gaussia luciferase mutant
[1]
  Activity of mutant relative to wild-type Gaussia luciferase without the signal peptide: 1.067
[2]
  Activity of mutant relative to wild-type Gaussia luciferase without the signal peptide: 0.787

B5: F26R V29D A30G A32D A36I T37A L40R: Gaussia luciferase mutant (protein)
chain: MGVKVLFALICIAVAEAKPTENNEDRNIDGVDSNFIATDRDADRGKLPGKKLPLEVLKEMEANARKAGCTRGCLICLSHIKCTPKMKKFIPGRCHTYEGDKESAQGGIGEAIVDIPEIPGFKDLEPMEQFIAQVDLCVDCTTGCLKGLANVQCSDLLKKWLPQRCATFASKIQGQVDKIKGAGGD
modifications: SIGNAL (1)..(17)
notes: Gaussia luciferase mutant
[1]
  Activity of mutant relative to wild-type Gaussia luciferase without the signal peptide: 0.453
[2]
  Activity of mutant relative to wild-type Gaussia luciferase without the signal peptide: 2.460

B6: F26R V29R A30V V31L S33G A36V T37R: Gaussia luciferase mutant (protein)
chain: MGVKVLFALICIAVAEAKPTENNEDRNIRVLAGNFVRTDLDADRGKLPGKKLPLEVLKEMEANARKAGCTRGCLICLSHIKCTPKMKKFIPGRCHTYEGDKESAQGGIGEAIVDIPEIPGFKDLEPMEQFIAQVDLCVDCTTGCLKGLANVQCSDLLKKWLPQRCATFASKIQGQVDKIKGAGGD
modifications: SIGNAL (1)..(17)
notes: Gaussia luciferase mutant
[1]
  Activity of mutant relative to wild-type Gaussia luciferase without the signal peptide: 0.423
[2]
  Activity of mutant relative to wild-type Gaussia luciferase without the signal peptide: 0.115

B7: K66N H79K P84L S103T E110A D123N L124M E128G V138E: Gaussia luciferase mutant (protein)
chain: MGVKVLFALICIAVAEAKPTENNEDFNIVAVASNFATTDLDADRGKLPGKKLPLEVLKEMEANARNAGCTRGCLICLSKIKCTLKMKKFIPGRCHTYEGDKETAQGGIGAAIVDIPEIPGFKNMEPMGQFIAQVDLCEDCTTGCLKGLANVQCSDLLKKWLPQRCATFASKIQGQVDKIKGAGGD
modifications: SIGNAL (1)..(17)
notes: Gaussia luciferase mutant
[1]
  Activity of mutant relative to wild-type Gaussia luciferase without the signal peptide: 1.111
[2]
  Activity of mutant relative to wild-type Gaussia luciferase without the signal peptide: 1.709

B8: K66R E102D E110P V138D: Gaussia luciferase mutant (protein)
chain: MGVKVLFALICIAVAEAKPTENNEDFNIVAVASNFATTDLDADRGKLPGKKLPLEVLKEMEANARRAGCTRGCLICLSHIKCTPKMKKFIPGRCHTYEGDKDSAQGGIGPAIVDIPEIPGFKDLEPMEQFIAQVDLCDDCTTGCLKGLANVQCSDLLKKWLPQRCATFASKIQGQVDKIKGAGGD
modifications: SIGNAL (1)..(17)
notes: Gaussia luciferase mutant
[1]
  Activity of mutant relative to wild-type Gaussia luciferase without the signal peptide: 0.674
[2]
  Activity of mutant relative to wild-type Gaussia luciferase without the signal peptide: 1.560

B9: K66R P84A E102A S103I A104G E110A: Gaussia luciferase mutant (protein)
chain: MGVKVLFALICIAVAEAKPTENNEDFNIVAVASNFATTDLDADRGKLPGKKLPLEVLKEMEANARRAGCTRGCLICLSHIKCTAKMKKFIPGRCHTYEGDKAIGQGGIGAAIVDIPEIPGFKDLEPMEQFIAQVDLCVDCTTGCLKGLANVQCSDLLKKWLPQRCATFASKIQGQVDKIKGAGGD
modifications: SIGNAL (1)..(17)
notes: Gaussia luciferase mutant
[1]
  Activity of mutant relative to wild-type Gaussia luciferase without the signal peptide: 0.122
[2]
  Activity of mutant relative to wild-type Gaussia luciferase without the signal peptide: 1.209

B10: K66R E102K E110G D123N V138D: Gaussia luciferase mutant (protein)
chain: MGVKVLFALICIAVAEAKPTENNEDFNIVAVASNFATTDLDADRGKLPGKKLPLEVLKEMEANARRAGCTRGCLICLSHIKCTPKMKKFIPGRCHTYEGDKKSAQGGIGGAIVDIPEIPGFKNLEPMEQFIAQVDLCDDCTTGCLKGLANVQCSDLLKKWLPQRCATFASKIQGQVDKIKGAGGD
modifications: SIGNAL (1)..(17)
notes: Gaussia luciferase mutant
[1]
  Activity of mutant relative to wild-type Gaussia luciferase without the signal peptide: 1.000
[2]
  Activity of mutant relative to wild-type Gaussia luciferase without the signal peptide: 1.611

B11: K66R P84A E102S S103I A104G E110A L124M V138E: Gaussia luciferase mutant (protein)
chain: MGVKVLFALICIAVAEAKPTENNEDFNIVAVASNFATTDLDADRGKLPGKKLPLEVLKEMEANARRAGCTRGCLICLSHIKCTAKMKKFIPGRCHTYEGDKSIGQGGIGAAIVDIPEIPGFKDMEPMEQFIAQVDLCEDCTTGCLKGLANVQCSDLLKKWLPQRCATFASKIQGQVDKIKGAGGD
modifications: SIGNAL (1)..(17)
notes: Gaussia luciferase mutant
[1]
  Activity of mutant relative to wild-type Gaussia luciferase without the signal peptide: 1.302
[2]
  Activity of mutant relative to wild-type Gaussia luciferase without the signal peptide: 0.587

B12: K66N P84L E102K E110P D123N: Gaussia luciferase mutant (protein)
chain: MGVKVLFALICIAVAEAKPTENNEDFNIVAVASNFATTDLDADRGKLPGKKLPLEVLKEMEANARNAGCTRGCLICLSHIKCTLKMKKFIPGRCHTYEGDKKSAQGGIGPAIVDIPEIPGFKNLEPMEQFIAQVDLCVDCTTGCLKGLANVQCSDLLKKWLPQRCATFASKIQGQVDKIKGAGGD
modifications: SIGNAL (1)..(17)
notes: Gaussia luciferase mutant
[1]
  Activity of mutant relative to wild-type Gaussia luciferase without the signal peptide: 0.172
[2]
  Activity of mutant relative to wild-type Gaussia luciferase without the signal peptide: 0.112

B13: K66R P84L E102D S103T E110A V138E: Gaussia luciferase mutant (protein)
chain: MGVKVLFALICIAVAEAKPTENNEDFNIVAVASNFATTDLDADRGKLPGKKLPLEVLKEMEANARRAGCTRGCLICLSHIKCTLKMKKFIPGRCHTYEGDKDTAQGGIGAAIVDIPEIPGFKDLEPMEQFIAQVDLCEDCTTGCLKGLANVQCSDLLKKWLPQRCATFASKIQGQVDKIKGAGGD
modifications: SIGNAL (1)..(17)
notes: Gaussia luciferase mutant
[1]
  Activity of mutant relative to wild-type Gaussia luciferase without the signal peptide: 0.626
[2]
  Activity of mutant relative to wild-type Gaussia luciferase without the signal peptide: 3.079
